According to paper PMC3590144, “Determination of the Structure of the Catabolic N-Succinylornithine Transaminase (AstC) from Escherichia coli” (PLoS ONE, 2013):

B1: apo-AstC, N-succinylornithine transaminase from Escherichia coli, without PLP (enzyme, E. coli (BL21 DE3), UniProt P77581 1-406, looked up)
chain: MSQPITRENFDEWMIPVYAPAPFIPVRGEGSRLWDQQGKEYIDFAGGIAVNALGHAHPELREALNEQASKFWHTGNGYTNEPVLRLAKKLIDATFADRVFFCNSGAEANEAALKLARKFAHDRYGSHKSGIVAFKNAFHGRTLFTVSAGGQPAYSQDFAPLPADIRHAAYNDINSASALIDDSTCAVIVEPIQGEGGVVPASNAFLQGLRELCNRHNALLIFDEVQTGVGRTGELYAYMHYGVTPDLLTTAKALGGGFPVGALLATEECARVMTVGTHGTTYGGNPLASAVAGKVLELINTPEMLNGVKQRHDWFVERLNTINHRYGLFSEVRGLGLLIGCVLNADYAGQAKQISQEAAKAGVMVLIAGGNVVRFAPALNVSEEEVTTGLDRFAAACEHFVSRGSS
notes: AstC (acetyl/succinylornithine aminotransferase) of E. coli; native, untagged protein, no plasmid or clone used; electron density from Gln3 to Ser402, the last 4 residues (Arg-Gly-Ser-Ser) not modelled, which implies 406 residues; Endogenous protein of strain BL21 (DE3); also called apo-protein; apo-enzyme; source: endogenous, E. coli BL21 (DE3) grown in 2xYT, purified (Ni-NTA, size exclusion …)
B2: holo-AstC, N-succinylornithine transaminase from Escherichia coli reconstituted with PLP (enzyme, E. coli (BL21 DE3), UniProt P77581 1-406, looked up)
chain: B1 chain
modifications: PLP bound to Lys252 in a Schiff base (aldimine)
notes: AstC (acetyl/succinylornithine aminotransferase) of E. coli; native, untagged protein, no plasmid or clone used; the last 4 residues (Arg-Gly-Ser-Ser) after Ser402 not modelled, which implies 406 residues; Same polypeptide as m1, with the cofactor PLP added; Endogenous protein of strain BL21 (DE3); also called holo-enzyme; PLP/enzyme complex; source: endogenous, E. coli BL21 (DE3), purified …

How the values were obtained:
[1] = target: the molecule itself; assay: crystal structure; apo-AstC without PLP; space group R32:h, 2 molecules in the asymmetric unit, 2.75 Å; grown in 1.4 M sodium malonate pH 7 at 20 °C; dimers formed by crystallographic symmetry
[2] = target: the molecule itself; assay: dynamic light scattering; in solution; hydrodynamic radius mean value 4.5 nm, about 100 kDa; data not shown

Row | Protein | binding result [1] | stoichiometry N [2]
1 | B1 | binds | 
2 | B2 |  | 2
